These results are taken from patent publication US20210070881A1 (DENALI THERAPEUTICS, published 2021).

One may read the Kd as the concentration at which binding is half-saturated. Broadly, the koff is a measure of how fast the partners let go of each other. Usually kon stands for the rate constant with which the complex forms.

Substitutions are numbered along the chain they refer to.

B1: 4H10 (antibody, human IgG1, V domains shown)
VH: EIQLQQSGPELKKPGETVKISCKTSGYTFTTYGMTWVKQAPGKGLKWMGWINTYSGVPIYADDFKGRSAFSLETSASTAYLQINNLENEDTATYFCARRGSTAHYFDYWGQGTTVTVSS
VL: DIVLTQSHKFMSTSVGDRVSITCKASQDVSTAVAWYQQKPGQSPKLLIYWASTRHTGVPDRFTGSGSGTDYTLTISSVQAEDLALYYCQQHYSTPYTFGGGTKLELK
notes: chimeric, human IgG1/kappa; also called Clone 4H10
B2: 3C11 (antibody, human IgG1, V domains shown)
VH: EVQLQQSGADLMKPGASVKLSCKATGYTFTGYWIEWVKQRPGHGLEWIGEIFPGSVSTNYNEKFKGKATFTADTSSNTAYMQLSSLTTEDSAIYYCARSPIYYDYADYWGQGTTLTVSS
VL: DIVLSQSHKFMSTSVGDRVSITCKASQDVGTAVAWYQQKPGQSPKALIYLASNRHTGVPDRFTGSGSGTDFTLTISNVQSEDLAEYFCQQYNSYPYTFGGGTRLEIK
notes: chimeric, human IgG1/kappa; also called Clone 3C11
B3: 4A4 (antibody, human IgG1, V domains shown)
VH: EVKLMESGPGLVAPSQSLSITCTVSGFSLTSYPINWVRQPPGKGLEWLGVIWTGGSTNYNSALKSRLSISRDNSKSQVFLKMNSLQTDDTARYYCARWDGYFGAFDYWGQGTTVTVSS
VL: DIVMTQTTSSLSASLGDRVTISCRASQDISKYLNWYQQKPDGTVKLLIYYTSRLHSGVPSRFSGSGSGTDYSLTISNLEQEDIATYFCQQSLSLPYTFGGGTRLEIK
notes: chimeric, human IgG1/kappa; also called Clone 4A4
B4: 1D7 (antibody, human IgG1, V domains shown)
VH: EVKLMESGPGLVAPSQSLSISCTVSGFSLTSYGVDWVRQPPGKGLEWLGVVWGGGSTNYNSALMSRLSISKDNSKSQVFLKMNSLQTDDTAMYYCAKRDYFGGLNVWGTGTTVTVSS
VL: B3 VL with S10P, A13V, K39R, Q89H, S91G, L92H, S93K, L94I, R103K, I106L
notes: chimeric, human IgG1/kappa; also called Clone 1D7
B5: 1D2 (antibody, human IgG1, V domains shown)
VH: EVHVKQSGPELKKPGETVTISCKASGYTFTTYGMTWVRQAPGKDLEWMGWINTHSGVPIYADDFKGRFAFSLETSAGTAYLQINNLKNEDTATYFCTRRGRLGHYFDYWGQGTSVTVSS
VL: DIVMTQSQKFMSTSVGDRVSVTCKASQNVGTNVAWYQQKPGQSPKLLIYWASTRHTGVPDRFTGSGSGTDFTLTISNVQSEDLADYFCQQYSSYPYTFGGGTKLELK
notes: chimeric, human IgG1/kappa; also called Clone 1D2
B6: 1F1 (antibody, human IgG1, V domains shown)
VH: EVQLQQSGAELMKPGASVKLSCKATGYTFIGYWIDWVKQRPGHGLEWIGEILPGGGSTNHNEKFKGKATFTTDTSSNTVYMQLSSLTTEDSAIYYCAREGSYGNYYFDYWGQGTSVTVSS
VL: DIQMTQTPLSLPVSLGDQASISCRSSQSIVHSNGNTYLEWYLQKPGQSPKLLIYKVSNRFSGVPDRFSGSGSGTDFTLKISRVEAEDLGVYYCFQGSHVPYTFGGGTKLEIK
notes: chimeric, human IgG1/kappa; also called Clone 1F1
B7: 2E1 (antibody, human IgG1, V domains shown)
VH: EVQLQQPGTELVRPGTSVKLSCKASGYTFTNFWMHWVKQRPGQGLEWIGVINPSDTYTKFNQKFRGKATLTVDTSSSTAYMQLSSLTSEDSAVYFCARPTVGLDYWGQGTSVTVSS
VL: DIVMTQSQKFMPTSVGDRVSVTCKASQNVGSNVAWYQQKSGQSPKALIYSASHRYSGVPDRFTGSGSGTDFTLTISNVQSEDLAEYFCQQYNSYPYTFGGGTKLEIK
notes: chimeric, human IgG1/kappa; also called Clone 2E1
B8: hu2H8v29.1 (antibody, V domains shown)
VH: QVQLVQSGAEVKKPGASVKVSCKASGYTFTNFWIHWVRQAPGQGLEWMGMIDPSDSYTKYNQKFKARATLTVDTSTSTVYMELSSLRSEDTAVYYCARSGVAFPYWGQGTLVTVSS
VL: DIQMTQSPSSLSASVGDRVTITCKASQDVGRNVAWYQQKPGKSPKSLIYSASHYYSGVPSRFSGSGSGTDFTLTISSLQPEDFATYFCQQYNSYPYTFGQGTKVEIK
notes: captured via human Fc; also called hu2H8_HC6 + hu2H8_LC5.1
B9: hu2H8v29.2 (antibody, V domains shown)
VH: B8 VH
VL: B8 VL with Y54N
notes: captured via human Fc; also called hu2H8_HC6 + hu2H8_LC5.2
B10: hu2H8v29.16 (antibody, V domains shown)
VH: B8 VH with M50I
VL: B8 VL with Y54R
notes: captured via human Fc; also called hu2H8_LC5 + hu2H8_HC6.5
B11: hu2H8v29.22 (antibody, V domains shown)
VH: B8 VH with F103L, Y105S
VL: B8 VL with Y54R
notes: captured via human Fc; also called hu2H8_LC5 + hu2H8_HC6.11
B12: hu2H8v29.15 (antibody, V domains shown)
VH: B8 VH with W33Y
VL: B8 VL with Y54R
notes: captured via human Fc; also called hu2H8_LC5 + hu2H8_HC6.4
B13: hu2H8v29.18 (antibody, V domains shown)
VH: B8 VH with D55E
VL: B8 VL with Y54R
notes: captured via human Fc; also called hu2H8_LC5 + hu2H8_HC6.7
B14: hu2H8v29.17 (antibody, V domains shown)
VH: B8 VH with D55S
VL: B8 VL with Y54R
notes: captured via human Fc; also called hu2H8_LC5 + hu2H8_HC6.6
B15: hu2H8v29.28 (antibody, V domains shown)
VH: B8 VH with S54D, D55S, V101A, A102S, F103L
VL: B8 VL with N92Y
notes: captured via human Fc; also called hu2H8_LC5.12 + hu2H8_HC6.17
B16: hu2H8v29.23 (antibody, V domains shown)
VH: B8 VH with A102S, F103L
VL: B8 VL with Y54R
notes: captured via human Fc; also called hu2H8_LC5 + hu2H8_HC6.12
B17: hu2H8v29.26 (antibody, V domains shown)
VH: B8 VH with V101G, F103L
VL: B8 VL with Y54R
notes: captured via human Fc; also called hu2H8_LC5 + hu2H8_HC6.15
B18: hu2H8v29.21 (antibody, V domains shown)
VH: B8 VH with F103L
VL: B8 VL with Y54R
notes: captured via human Fc; also called hu2H8_LC5 + hu2H8_HC6.10
B19: hu2H8v29.19 (antibody, V domains shown)
VH: B8 VH with D55G
VL: B8 VL with Y54R
notes: captured via human Fc; also called hu2H8_LC5 + hu2H8_HC6.8
B20: hu2H8v29.20 (antibody, V domains shown)
VH: B8 VH with S56A
VL: B8 VL with Y54R
notes: captured via human Fc; also called hu2H8_LC5 + hu2H8_HC6.9
B21: hu2H8v29.12 (antibody, V domains shown)
VH: B8 VH with T30N
VL: B8 VL with Y54R
notes: captured via human Fc; also called hu2H8_LC5 + hu2H8_HC6.1
B22: hu2H8v29.24 (antibody, V domains shown)
VH: B8 VH with V101A, A102S, F103L
VL: B8 VL with Y54R
notes: captured via human Fc; also called hu2H8_LC5 + hu2H8_HC6.13
B23: hu2H8v29.25 (antibody, V domains shown)
VH: B8 VH with V101A, F103L
VL: B8 VL with Y54R
notes: captured via human Fc; also called hu2H8_LC5 + hu2H8_HC6.14
B24: hu2H8v29.27 (antibody, V domains shown)
VH: B8 VH with D55S, V101A, A102S, F103L
VL: B8 VL with N92Y
notes: captured via human Fc; also called hu2H8_LC5.12 + hu2H8_HC6.16
B25: hu2H8v29.14 (antibody, V domains shown)
VH: B8 VH with T30N, N31S, F32Y
VL: B8 VL with Y54R
notes: captured via human Fc; also called hu2H8_LC5 + hu2H8_HC6.3
B26: hu2H8v29.13 (antibody, V domains shown)
VH: B8 VH with F32Y
VL: B8 VL with Y54R
notes: captured via human Fc; also called hu2H8_LC5 + hu2H8_HC6.2

In the first experiment the target is cellular BACE1 in CHOK1-huAPP cells. As to the kind of experiment: cell-based or functional assay.
For the molecule B1, the “% Max Inhibition” value stood at 46% and the “Cellular IC50” value came to 18 nM.
Regarding B2, the “% Max Inhibition” value is 56% and the “Cellular IC50” value was found to be 36 nM.
Consider B3, for which the “% Max Inhibition” value was 53% and the “Cellular IC50” value was 17 nM.
With B4, the “% Max Inhibition” value was 55% and the “Cellular IC50” value was 4 nM.
The corresponding values for B5 are 47% and 4 nM.
Regarding B6, the “% Max Inhibition” value came to 63% and the “Cellular IC50” value is 11 nM.
For B7, the “% Max Inhibition” value came out at 63% and the “Cellular IC50” value stood at 34 nM.

The target of a further experiment is T1, recombinant BACE1 (BACE1 extracellular domain, R&D Systems Cat#931-AS) (UniProt P56817 22-457).
T1 construct: extracellular domain; also called BACE1 extracellular domain protein
T1 sequence (P56817 22-457): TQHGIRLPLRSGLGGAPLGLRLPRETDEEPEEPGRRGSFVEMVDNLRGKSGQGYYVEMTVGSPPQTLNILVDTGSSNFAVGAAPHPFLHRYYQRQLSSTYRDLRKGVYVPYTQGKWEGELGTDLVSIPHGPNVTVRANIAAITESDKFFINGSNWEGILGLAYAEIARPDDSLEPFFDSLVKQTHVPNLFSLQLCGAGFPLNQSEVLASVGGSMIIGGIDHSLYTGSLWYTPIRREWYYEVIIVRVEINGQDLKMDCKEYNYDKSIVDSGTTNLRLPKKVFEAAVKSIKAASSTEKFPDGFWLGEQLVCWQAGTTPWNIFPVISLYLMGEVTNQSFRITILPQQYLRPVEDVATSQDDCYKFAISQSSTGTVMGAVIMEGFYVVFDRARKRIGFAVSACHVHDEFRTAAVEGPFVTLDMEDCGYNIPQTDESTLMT
As to the kind of experiment: SPR Biacore T200, IgG captured, BACE1 analyte. Here is the method:
The affinity of chimeric IgG antibodies for recombinant BACE1 was determined by surface plasmon resonance using a Biacore™ T200 instrument. Biacore™ Series S CMS sensor chips were immobilized with monoclonal mouse anti-human IgG (Fc) antibody (e.g., using a human antibody capture kit from GE Healthcare). 1 μg/mL of antibody was captured for 1 minute on each flow cell and serial 3-fold dilutions of recombinant BACE1 were injected at a flow rate of 30 μL/min. Each sample was analyzed with a 3-minute association and a 10-minute dissociation. After each injection, the chip was regenerated using 3M MgCl₂. Binding response was corrected by subtracting the RU from a flow cell capturing an irrelevant IgG at similar density. A 1:1 Langmuir model of simultaneous fitting of kₒₙ and koff was used for analysis of kinetics.
Consider B1, for which the Kd came to 23 nM, the koff is 0.0022 s⁻¹ and the kon is 96000 M⁻¹ s⁻¹.
Regarding B2, the dissociation constant Kd was determined as 61 nM, the koff was 0.0013 s⁻¹ and the kon was 21000 M⁻¹ s⁻¹.
The like results for B3 were, in that order, 15 nM, 0.0012 s⁻¹ and 83000 M⁻¹ s⁻¹.
Regarding B4, the Kd turned out to be 16 nM, the koff was found to be 0.00095 s⁻¹ and the kon is 59000 M⁻¹ s⁻¹.
For the molecule B5, the Kd turned out to be 3.1 nM, the koff was determined as 0.00024 s⁻¹ and the kon is 78000 M⁻¹ s⁻¹.
B6: the Kd is 5 nM, the koff turned out to be 0.00024 s⁻¹ and the kon was determined as 49000 M⁻¹ s⁻¹.
For the molecule B7, the Kd amounted to 71 nM, the koff came to 0.0013 s⁻¹ and the kon was determined as 18000 M⁻¹ s⁻¹.

A further experiment addresses T1, recombinant BACE1 (BACE1 extracellular …). Kind of experiment: SPR Biacore 8K, antibody captured, BACE1 analyte. Here is the method:
(§1) The binding affinities of the affinity matured humanized 2H8 variants for BACE1 were determined by surface plasmon resonance using a Biacore™ 8K instrument. […] The binding was monitored for 300 seconds and then dissociation was monitored for 600+ seconds in HBS-EP+ running buffer (GE Healthcare Life Sciences, BR100669). Binding response was corrected by subtracting the RU from a blank flow cell. A 1:1 Langmuir model of simultaneous fitting of kₒₙ and koff was used for kinetics analysis.
Background: Surface plasmon resonance follows binding to a sensor surface in real time, without labels.
As for B8, the Kd was found to be 7.22 nM.
Consider B9, for which the Kd was determined as 8.16 nM.

A further experiment has the same target. Kind of experiment: SPR Biacore 8K, antibody captured, BACE1 analyte. The source holds these as a separate data set. Here is the method:
as §1
As for B10, the dissociation constant Kd turned out to be 31.3 nM.
On to B11, for which the Kd is 6 nM.
For the molecule B12, the Kd worked out at 19.2 nM.
The same measure, in the same setting: next, B13: 10.3 nM; B14: 8.04 nM; B15: 4.8 nM.
Take B16: the Kd is 7 nM.
B17: the Kd stood at 8.52 nM.
Regarding B18, the Kd was found to be 6.68 nM.
Consider B19, for which the Kd came out at 9.95 nM.
As to B20, the Kd came out at 8.69 nM.
On to B21, for which the Kd is 8.42 nM.
Take B22: the Kd is 5.73 nM.
On to B23, for which the Kd was found to be 6.08 nM.
With B24, the Kd amounted to 3.4 nM.
As to B25, the Kd turned out to be 9.32 nM.
With B26, the Kd is 9.16 nM.
